Test results: the supplement of paper PMC10266784

B1: library; numbered along this chain (parent)
chain: MAAAAAAAAEQQSSNGPVKKSMREKAVERRSVNKEHNSNFKAGYIPIDEDRLHKTGLRGRKGNLAICVIILLFILAVINLIITLVIWAVIRIGPNGCDSMEFHESGLLRFKQVSDMGVIHPLYKSTVGGRRNENLVITGNNQPIVFQQGTTKLSVENNKTSITSDIGMQFFDPRTQNILFSTDYETHEFHLPSGVKSLNVQKASTERITSNATSDLNIKVDGRAIVRGNEGVFIMGKTIEFHMGGNMELKAENSIILNGSVMVSTTRLPSSSSGDQLGSGDWVRYKLCMCADGTLFKVQVTSQNMGCQISDNPCGNTH

Variants of: B1
Assay: SGCB cell-surface expression functional score (HA stain, bin4 vs bin1, normalised to synonymous) (log10 ratio); higher = more cell-surface SGCB (functional)
Method in brief: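 Human beta-sarcoglycan, tagged with HA and fused to YFP, was built into codon-saturation libraries and delivered by lentivirus at MOI <0.1 into HEK293 cells that stably express alpha-, gamma- and delta-sarcoglycan. After 72 hours, YFP-positive cells were sorted and grown for 5–7 days, then stained on ice with Alexa Fluor 647 anti-HA, fixed, sorted into four 5% intensity bins and amplicon-sequenced. Each variant's functional score is the log ratio of its frequency in the highest bin to that in the lowest bin, taken as the median across codons and transductions. Transductions were done in duplicate, and synonymous variants were scaled per section to mean 0, SD 0.5.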

Row | Variant | SGCB cell-surface expression functional score (log10)
1 | MAAAAAAAAEQQSSNGPVKKSMREKAVERRSVNKEHNSNFKAGYIPIDEDRLHKTGLRGRKGNLAICVIILLFILAVINLIITLVIWAVIRIGPNGCDSMEFHESGLLRFKQVSDMGVIHPLYKSTVGGRRNENLVITGNNQPIVFQQGTTKLSVENNKTSITSDIGMQFFDPRTQNILFSTDYETHEFHLPSGVKSLNVQKASTERITSNATSDLNIKVDGRAIVRGNEGVFIMGKTIEFHMGGNMELKAENSIILNGSIMVSTTRLPSSSSGDQLGSGDWVRYKLCMCADGTLFKVQVTSQNMGCQISDNPCGNTH [V261I] | 0.29
2 | MAAAAAAAAEQQSSNGPVKKSMREKAVERRSVNKEHNSNFKAGYIPIDEDRLHKTGLRGRKGNLAICVIILLFILAVINLIITLVIWAVIRIGPNGCDSMEFHESGLLRFKQVSDMGVIHPLYKSTVGGRRNENLVITGNNQPIVFQQGTTKLSVENNKTSITSDIGMQFFDPRTQNILFSTDYETHEFHLPSGVKSLNVQKASTERITSNATSDLNIKVDGRAIVRGNEGVFIMGKTIEFHMGGNMELKAENSIILNGSKMVSTTRLPSSSSGDQLGSGDWVRYKLCMCADGTLFKVQVTSQNMGCQISDNPCGNTH [V261K] | -1.55
3 | MAAAAAAAAEQQSSNGPVKKSMREKAVERRSVNKEHNSNFKAGYIPIDEDRLHKTGLRGRKGNLAICVIILLFILAVINLIITLVIWAVIRIGPNGCDSMEFHESGLLRFKQVSDMGVIHPLYKSTVGGRRNENLVITGNNQPIVFQQGTTKLSVENNKTSITSDIGMQFFDPRTQNILFSTDYETHEFHLPSGVKSLNVQKASTERITSNATSDLNIKVDGRAIVRGNEGVFIMGKTIEFHMGGNMELKAENSIILNGSFMVSTTRLPSSSSGDQLGSGDWVRYKLCMCADGTLFKVQVTSQNMGCQISDNPCGNTH [V261F] | -1.31
4 | MAAAAAAAAEQQSSNGPVKKSMREKAVERRSVNKEHNSNFKAGYIPIDEDRLHKTGLRGRKGNLAICVIILLFILAVINLIITLVIWAVIRIGPNGCDSMEFHESGLLRFKQVSDMGVIHPLYKSTVGGRRNENLVITGNNQPIVFQQGTTKLSVENNKTSITSDIGMQFFDPRTQNILFSTDYETHEFHLPSGVKSLNVQKASTERITSNATSDLNIKVDGRAIVRGNEGVFIMGKTIEFHMGGNMELKAENSIILNGSSMVSTTRLPSSSSGDQLGSGDWVRYKLCMCADGTLFKVQVTSQNMGCQISDNPCGNTH [V261S] | -0.04
5 | MAAAAAAAAEQQSSNGPVKKSMREKAVERRSVNKEHNSNFKAGYIPIDEDRLHKTGLRGRKGNLAICVIILLFILAVINLIITLVIWAVIRIGPNGCDSMEFHESGLLRFKQVSDMGVIHPLYKSTVGGRRNENLVITGNNQPIVFQQGTTKLSVENNKTSITSDIGMQFFDPRTQNILFSTDYETHEFHLPSGVKSLNVQKASTERITSNATSDLNIKVDGRAIVRGNEGVFIMGKTIEFHMGGNMELKAENSIILNGSRMVSTTRLPSSSSGDQLGSGDWVRYKLCMCADGTLFKVQVTSQNMGCQISDNPCGNTH [V261R] | -0.69
6 | MAAAAAAAAEQQSSNGPVKKSMREKAVERRSVNKEHNSNFKAGYIPIDEDRLHKTGLRGRKGNLAICVIILLFILAVINLIITLVIWAVIRIGPNGCDSMEFHESGLLRFKQVSDMGVIHPLYKSTVGGRRNENLVITGNNQPIVFQQGTTKLSVENNKTSITSDIGMQFFDPRTQNILFSTDYETHEFHLPSGVKSLNVQKASTERITSNATSDLNIKVDGRAIVRGNEGVFIMGKTIEFHMGGNMELKAENSIILNGSGMVSTTRLPSSSSGDQLGSGDWVRYKLCMCADGTLFKVQVTSQNMGCQISDNPCGNTH [V261G] | -0.18
7 | MAAAAAAAAEQQSSNGPVKKSMREKAVERRSVNKEHNSNFKAGYIPIDEDRLHKTGLRGRKGNLAICVIILLFILAVINLIITLVIWAVIRIGPNGCDSMEFHESGLLRFKQVSDMGVIHPLYKSTVGGRRNENLVITGNNQPIVFQQGTTKLSVENNKTSITSDIGMQFFDPRTQNILFSTDYETHEFHLPSGVKSLNVQKASTERITSNATSDLNIKVDGRAIVRGNEGVFIMGKTIEFHMGGNMELKAENSIILNGSNMVSTTRLPSSSSGDQLGSGDWVRYKLCMCADGTLFKVQVTSQNMGCQISDNPCGNTH [V261N] | -0.63
8 | MAAAAAAAAEQQSSNGPVKKSMREKAVERRSVNKEHNSNFKAGYIPIDEDRLHKTGLRGRKGNLAICVIILLFILAVINLIITLVIWAVIRIGPNGCDSMEFHESGLLRFKQVSDMGVIHPLYKSTVGGRRNENLVITGNNQPIVFQQGTTKLSVENNKTSITSDIGMQFFDPRTQNILFSTDYETHEFHLPSGVKSLNVQKASTERITSNATSDLNIKVDGRAIVRGNEGVFIMGKTIEFHMGGNMELKAENSIILNGSCMVSTTRLPSSSSGDQLGSGDWVRYKLCMCADGTLFKVQVTSQNMGCQISDNPCGNTH [V261C] | 0.48
9 | MAAAAAAAAEQQSSNGPVKKSMREKAVERRSVNKEHNSNFKAGYIPIDEDRLHKTGLRGRKGNLAICVIILLFILAVINLIITLVIWAVIRIGPNGCDSMEFHESGLLRFKQVSDMGVIHPLYKSTVGGRRNENLVITGNNQPIVFQQGTTKLSVENNKTSITSDIGMQFFDPRTQNILFSTDYETHEFHLPSGVKSLNVQKASTERITSNATSDLNIKVDGRAIVRGNEGVFIMGKTIEFHMGGNMELKAENSIILNGSAMVSTTRLPSSSSGDQLGSGDWVRYKLCMCADGTLFKVQVTSQNMGCQISDNPCGNTH [V261A] | -0.02
10 | MAAAAAAAAEQQSSNGPVKKSMREKAVERRSVNKEHNSNFKAGYIPIDEDRLHKTGLRGRKGNLAICVIILLFILAVINLIITLVIWAVIRIGPNGCDSMEFHESGLLRFKQVSDMGVIHPLYKSTVGGRRNENLVITGNNQPIVFQQGTTKLSVENNKTSITSDIGMQFFDPRTQNILFSTDYETHEFHLPSGVKSLNVQKASTERITSNATSDLNIKVDGRAIVRGNEGVFIMGKTIEFHMGGNMELKAENSIILNGSPMVSTTRLPSSSSGDQLGSGDWVRYKLCMCADGTLFKVQVTSQNMGCQISDNPCGNTH [V261P] | -0.15
11 | MAAAAAAAAEQQSSNGPVKKSMREKAVERRSVNKEHNSNFKAGYIPIDEDRLHKTGLRGRKGNLAICVIILLFILAVINLIITLVIWAVIRIGPNGCDSMEFHESGLLRFKQVSDMGVIHPLYKSTVGGRRNENLVITGNNQPIVFQQGTTKLSVENNKTSITSDIGMQFFDPRTQNILFSTDYETHEFHLPSGVKSLNVQKASTERITSNATSDLNIKVDGRAIVRGNEGVFIMGKTIEFHMGGNMELKAENSIILNGSDMVSTTRLPSSSSGDQLGSGDWVRYKLCMCADGTLFKVQVTSQNMGCQISDNPCGNTH [V261D] | 0.41
12 | MAAAAAAAAEQQSSNGPVKKSMREKAVERRSVNKEHNSNFKAGYIPIDEDRLHKTGLRGRKGNLAICVIILLFILAVINLIITLVIWAVIRIGPNGCDSMEFHESGLLRFKQVSDMGVIHPLYKSTVGGRRNENLVITGNNQPIVFQQGTTKLSVENNKTSITSDIGMQFFDPRTQNILFSTDYETHEFHLPSGVKSLNVQKASTERITSNATSDLNIKVDGRAIVRGNEGVFIMGKTIEFHMGGNMELKAENSIILNGSQMVSTTRLPSSSSGDQLGSGDWVRYKLCMCADGTLFKVQVTSQNMGCQISDNPCGNTH [V261Q] | -1.12
13 | MAAAAAAAAEQQSSNGPVKKSMREKAVERRSVNKEHNSNFKAGYIPIDEDRLHKTGLRGRKGNLAICVIILLFILAVINLIITLVIWAVIRIGPNGCDSMEFHESGLLRFKQVSDMGVIHPLYKSTVGGRRNENLVITGNNQPIVFQQGTTKLSVENNKTSITSDIGMQFFDPRTQNILFSTDYETHEFHLPSGVKSLNVQKASTERITSNATSDLNIKVDGRAIVRGNEGVFIMGKTIEFHMGGNMELKAENSIILNGSLMVSTTRLPSSSSGDQLGSGDWVRYKLCMCADGTLFKVQVTSQNMGCQISDNPCGNTH [V261L] | 0.42
14 | MAAAAAAAAEQQSSNGPVKKSMREKAVERRSVNKEHNSNFKAGYIPIDEDRLHKTGLRGRKGNLAICVIILLFILAVINLIITLVIWAVIRIGPNGCDSMEFHESGLLRFKQVSDMGVIHPLYKSTVGGRRNENLVITGNNQPIVFQQGTTKLSVENNKTSITSDIGMQFFDPRTQNILFSTDYETHEFHLPSGVKSLNVQKASTERITSNATSDLNIKVDGRAIVRGNEGVFIMGKTIEFHMGGNMELKAENSIILNGSEMVSTTRLPSSSSGDQLGSGDWVRYKLCMCADGTLFKVQVTSQNMGCQISDNPCGNTH [V261E] | 0.05
15 | MAAAAAAAAEQQSSNGPVKKSMREKAVERRSVNKEHNSNFKAGYIPIDEDRLHKTGLRGRKGNLAICVIILLFILAVINLIITLVIWAVIRIGPNGCDSMEFHESGLLRFKQVSDMGVIHPLYKSTVGGRRNENLVITGNNQPIVFQQGTTKLSVENNKTSITSDIGMQFFDPRTQNILFSTDYETHEFHLPSGVKSLNVQKASTERITSNATSDLNIKVDGRAIVRGNEGVFIMGKTIEFHMGGNMELKAENSIILNGSHMVSTTRLPSSSSGDQLGSGDWVRYKLCMCADGTLFKVQVTSQNMGCQISDNPCGNTH [V261H] | -1.2
16 | MAAAAAAAAEQQSSNGPVKKSMREKAVERRSVNKEHNSNFKAGYIPIDEDRLHKTGLRGRKGNLAICVIILLFILAVINLIITLVIWAVIRIGPNGCDSMEFHESGLLRFKQVSDMGVIHPLYKSTVGGRRNENLVITGNNQPIVFQQGTTKLSVENNKTSITSDIGMQFFDPRTQNILFSTDYETHEFHLPSGVKSLNVQKASTERITSNATSDLNIKVDGRAIVRGNEGVFIMGKTIEFHMGGNMELKAENSIILNGSMMVSTTRLPSSSSGDQLGSGDWVRYKLCMCADGTLFKVQVTSQNMGCQISDNPCGNTH [V261M] | -0.12
17 | MAAAAAAAAEQQSSNGPVKKSMREKAVERRSVNKEHNSNFKAGYIPIDEDRLHKTGLRGRKGNLAICVIILLFILAVINLIITLVIWAVIRIGPNGCDSMEFHESGLLRFKQVSDMGVIHPLYKSTVGGRRNENLVITGNNQPIVFQQGTTKLSVENNKTSITSDIGMQFFDPRTQNILFSTDYETHEFHLPSGVKSLNVQKASTERITSNATSDLNIKVDGRAIVRGNEGVFIMGKTIEFHMGGNMELKAENSIILNGSYMVSTTRLPSSSSGDQLGSGDWVRYKLCMCADGTLFKVQVTSQNMGCQISDNPCGNTH [V261Y] | -1.15
18 | MAAAAAAAAEQQSSNGPVKKSMREKAVERRSVNKEHNSNFKAGYIPIDEDRLHKTGLRGRKGNLAICVIILLFILAVINLIITLVIWAVIRIGPNGCDSMEFHESGLLRFKQVSDMGVIHPLYKSTVGGRRNENLVITGNNQPIVFQQGTTKLSVENNKTSITSDIGMQFFDPRTQNILFSTDYETHEFHLPSGVKSLNVQKASTERITSNATSDLNIKVDGRAIVRGNEGVFIMGKTIEFHMGGNMELKAENSIILNGSWMVSTTRLPSSSSGDQLGSGDWVRYKLCMCADGTLFKVQVTSQNMGCQISDNPCGNTH [V261W] | 0.306
19 | MAAAAAAAAEQQSSNGPVKKSMREKAVERRSVNKEHNSNFKAGYIPIDEDRLHKTGLRGRKGNLAICVIILLFILAVINLIITLVIWAVIRIGPNGCDSMEFHESGLLRFKQVSDMGVIHPLYKSTVGGRRNENLVITGNNQPIVFQQGTTKLSVENNKTSITSDIGMQFFDPRTQNILFSTDYETHEFHLPSGVKSLNVQKASTERITSNATSDLNIKVDGRAIVRGNEGVFIMGKTIEFHMGGNMELKAENSIILNGSTMVSTTRLPSSSSGDQLGSGDWVRYKLCMCADGTLFKVQVTSQNMGCQISDNPCGNTH [V261T] | 0.23
